Data on one substance can be found in patent US20220009991A1.

This experiment has as its target IGF-1 receptor (UniProt P08069). Put plainly: cell-based or functional assay.
UniProt P08069, sequence (P08069 31-1367): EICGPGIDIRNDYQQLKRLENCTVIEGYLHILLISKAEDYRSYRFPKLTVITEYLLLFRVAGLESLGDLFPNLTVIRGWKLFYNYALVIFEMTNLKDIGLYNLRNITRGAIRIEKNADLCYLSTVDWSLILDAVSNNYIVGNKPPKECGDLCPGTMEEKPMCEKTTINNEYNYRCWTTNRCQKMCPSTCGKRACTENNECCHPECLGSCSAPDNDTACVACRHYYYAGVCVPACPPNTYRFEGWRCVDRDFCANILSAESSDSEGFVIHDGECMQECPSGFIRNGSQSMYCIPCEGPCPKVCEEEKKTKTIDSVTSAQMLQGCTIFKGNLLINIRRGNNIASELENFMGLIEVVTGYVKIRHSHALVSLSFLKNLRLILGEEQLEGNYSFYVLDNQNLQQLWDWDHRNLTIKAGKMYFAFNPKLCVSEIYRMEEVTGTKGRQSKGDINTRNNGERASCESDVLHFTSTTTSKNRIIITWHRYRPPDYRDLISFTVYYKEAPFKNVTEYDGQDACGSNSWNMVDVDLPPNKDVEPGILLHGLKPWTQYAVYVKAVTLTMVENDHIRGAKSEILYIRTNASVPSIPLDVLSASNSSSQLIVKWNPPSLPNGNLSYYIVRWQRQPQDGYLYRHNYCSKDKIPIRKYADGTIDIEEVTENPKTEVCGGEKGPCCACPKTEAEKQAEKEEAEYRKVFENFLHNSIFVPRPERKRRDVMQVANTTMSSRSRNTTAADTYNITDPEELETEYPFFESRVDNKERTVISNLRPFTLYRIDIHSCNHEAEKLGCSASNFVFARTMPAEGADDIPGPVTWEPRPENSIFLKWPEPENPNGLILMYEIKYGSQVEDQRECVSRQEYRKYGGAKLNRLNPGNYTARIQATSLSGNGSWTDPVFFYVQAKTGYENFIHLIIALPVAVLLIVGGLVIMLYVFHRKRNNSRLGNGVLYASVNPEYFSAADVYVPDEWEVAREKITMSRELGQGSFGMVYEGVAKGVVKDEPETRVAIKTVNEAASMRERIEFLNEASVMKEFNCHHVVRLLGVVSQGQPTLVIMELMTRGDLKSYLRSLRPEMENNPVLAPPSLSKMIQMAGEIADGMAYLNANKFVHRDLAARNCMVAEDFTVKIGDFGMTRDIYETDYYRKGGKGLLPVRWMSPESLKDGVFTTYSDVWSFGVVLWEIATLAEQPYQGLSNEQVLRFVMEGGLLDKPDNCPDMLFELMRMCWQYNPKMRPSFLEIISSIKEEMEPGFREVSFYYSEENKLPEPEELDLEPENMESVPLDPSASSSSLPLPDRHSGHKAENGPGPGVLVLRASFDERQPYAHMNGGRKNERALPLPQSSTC

In the case of IGF-1 (LR3) (ligand), the pAKT EC50 (concentration needed to achieve the half maximal level of pAKT signaling), healthy iPSC-derived cardiomyocytes, pAKT ELISA turned out to be 0.73.
